Measured values reported in paper PMC4918383.

Key:
[1] = target: actin filaments (UniProt P68135)
[2] = target: actin filaments (UniProt P68135); remark: listed apart in the source
[3] = target: actin filaments (UniProt P68135); remark: listed apart in the source

Sequence of human β-cardiac myosin motor domain::GFP chimera (P12883 1-787, change not shown): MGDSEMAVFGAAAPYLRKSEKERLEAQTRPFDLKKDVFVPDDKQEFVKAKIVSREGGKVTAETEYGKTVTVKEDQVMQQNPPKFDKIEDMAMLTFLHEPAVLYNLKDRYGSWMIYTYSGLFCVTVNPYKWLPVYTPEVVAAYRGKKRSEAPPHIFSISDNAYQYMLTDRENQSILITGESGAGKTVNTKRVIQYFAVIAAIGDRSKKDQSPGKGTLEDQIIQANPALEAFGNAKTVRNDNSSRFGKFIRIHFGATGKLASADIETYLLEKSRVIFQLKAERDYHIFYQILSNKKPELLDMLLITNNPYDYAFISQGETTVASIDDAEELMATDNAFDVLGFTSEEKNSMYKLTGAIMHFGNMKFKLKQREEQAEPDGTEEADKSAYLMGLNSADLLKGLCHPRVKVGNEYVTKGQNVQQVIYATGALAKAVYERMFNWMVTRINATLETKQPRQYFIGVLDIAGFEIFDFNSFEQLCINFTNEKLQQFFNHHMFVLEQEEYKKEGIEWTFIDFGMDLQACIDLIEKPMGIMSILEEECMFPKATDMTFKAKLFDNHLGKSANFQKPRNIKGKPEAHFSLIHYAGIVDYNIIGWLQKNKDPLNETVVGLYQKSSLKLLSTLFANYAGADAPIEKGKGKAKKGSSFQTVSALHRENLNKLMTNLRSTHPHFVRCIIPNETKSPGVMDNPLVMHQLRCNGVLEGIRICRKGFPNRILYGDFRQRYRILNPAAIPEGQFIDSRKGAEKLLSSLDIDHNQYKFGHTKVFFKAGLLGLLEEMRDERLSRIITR
Sequence of human β-cardiac heavy meromyosin (P12883 1-1138): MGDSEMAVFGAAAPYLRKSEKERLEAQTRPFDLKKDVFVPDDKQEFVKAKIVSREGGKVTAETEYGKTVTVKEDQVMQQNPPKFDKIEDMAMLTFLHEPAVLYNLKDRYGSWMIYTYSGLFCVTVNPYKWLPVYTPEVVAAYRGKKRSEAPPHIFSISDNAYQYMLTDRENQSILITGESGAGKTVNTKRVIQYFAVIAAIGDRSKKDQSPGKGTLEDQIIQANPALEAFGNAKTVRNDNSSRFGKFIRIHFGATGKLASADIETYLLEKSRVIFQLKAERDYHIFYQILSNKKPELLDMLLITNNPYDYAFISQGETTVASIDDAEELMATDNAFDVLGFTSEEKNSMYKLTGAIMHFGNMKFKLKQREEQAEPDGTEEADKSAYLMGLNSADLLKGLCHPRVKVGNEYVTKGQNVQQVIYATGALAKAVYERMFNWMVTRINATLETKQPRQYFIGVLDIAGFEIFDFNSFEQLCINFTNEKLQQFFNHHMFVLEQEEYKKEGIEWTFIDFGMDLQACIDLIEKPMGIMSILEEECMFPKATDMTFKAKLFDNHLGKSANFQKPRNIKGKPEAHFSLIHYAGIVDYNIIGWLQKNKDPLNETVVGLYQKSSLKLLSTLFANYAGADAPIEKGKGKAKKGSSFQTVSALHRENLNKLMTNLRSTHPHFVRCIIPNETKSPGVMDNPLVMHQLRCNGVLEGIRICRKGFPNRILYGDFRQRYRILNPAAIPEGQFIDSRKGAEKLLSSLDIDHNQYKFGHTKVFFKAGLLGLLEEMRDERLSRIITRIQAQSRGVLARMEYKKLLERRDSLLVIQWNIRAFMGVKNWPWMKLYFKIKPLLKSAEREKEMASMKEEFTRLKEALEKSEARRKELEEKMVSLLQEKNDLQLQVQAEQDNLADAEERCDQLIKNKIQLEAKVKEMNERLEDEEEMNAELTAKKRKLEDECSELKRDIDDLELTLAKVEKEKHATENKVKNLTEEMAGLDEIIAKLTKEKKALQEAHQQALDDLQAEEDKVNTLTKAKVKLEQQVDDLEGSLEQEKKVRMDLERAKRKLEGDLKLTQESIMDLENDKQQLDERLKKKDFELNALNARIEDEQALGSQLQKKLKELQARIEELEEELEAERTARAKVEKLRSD

actin filament velocity in the in vitro motility assay (cHMM bound directly to nitrocellulose, 32 °C), without OM and with OM titrated from 0.42 to 12.5 μM; slowed 15–20-fold by OM [1]	sliding actin filament velocity in the in vitro motility assay (cMD held by anti-GFP, 32 °C), without OM and with OM titrated from 0.42 to 12.5 μM; slowed 15–20-fold by OM [2]	K ATPase for actin activation of the steady-state ATPase of the cMD (0.06 μM cMD, 0–100 μM actin), with 100 μM OM [3]	K ATPase for actin activation of the steady-state ATPase of the cMD (0.06 μM cMD, 0–100 μM actin), without OM [3]	Substance
0.8 μm s^−1	–	–	–	human β-cardiac heavy meromyosin (from UniProt P12883 1-1138) (domain or fragment)
–	0.8 μm s^−1	5.4 µM	22.5 µM	human β-cardiac myosin motor domain::GFP chimera (from UniProt P12883 1-787) (domain or fragment)
